Legend:
[1] = target: T1, MUC5AC truncation construct 1-136 (human, UniProt P98088 3212-4055); assay: immunofluorescence, transfected 293T cells
T1 construct: also called 136 residue construct
T1 sequence: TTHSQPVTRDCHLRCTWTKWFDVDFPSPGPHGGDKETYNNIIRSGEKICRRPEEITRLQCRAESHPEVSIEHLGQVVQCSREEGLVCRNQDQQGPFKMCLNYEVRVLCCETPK
Method: (§1) Cells were transiently transfected with 2 μg of MUC5AC constructs of Table 8 with LIPOFECTAMINE®. Cells were grown for about 72 hours, fixed with about 4% PFA in PBS, washed with PBS, permeabilized with about 0.2% […] in PBS and washed with PBS. Cells were then blocked with about 1% BSA in PBS, and about 2 μg/ml NPC-1 antibody was added to sample wells and about 2 μg/ml of an Isotype control was added for 1 hour at room temp. Cells were washed with PBS and second anti human-FITC antibody (1:500) was added to all wells and to the second antibody control wells. Cells were washed and mounted on slides with DAPI hard mount. Cover slides were allowed to sit over night at about 4° C. Slides were visualized with a Nikon Eclipse Ti microscope with an Andor camera. At least 3 random fields were counted per transfection.
(§2) This strategy was used to identify an about 15 amino acid-region that contains a NPC-1 epitope: […] (SEQ ID NO: 37). […] This is a repetitive sequence that also has some changes in it which are also probable scaffold for the binding sites for the NPC-1C antibody. This repetitive sequence and variations can be found in the longer deletions of MUC5AC and MUC5AC itself.

[2] = target: T2, MUC5AC truncation construct 1-85 (human, UniProt P98088 1734-1794); assay: immunofluorescence, transfected 293T cells
T2 construct: also called 85 residue construct
T2 chain: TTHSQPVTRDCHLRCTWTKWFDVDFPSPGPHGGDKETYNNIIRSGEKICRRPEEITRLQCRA
Method: as §1, §2

binding result [1]: no binding (tested: about 2 µg/ml)
binding result [2]: no binding (tested: about 2 µg/ml)
B1: NPC-1C (antibody, V domains shown)
VH: QVQLKESGPDLVAPSQSLSITCTVSGFSLSKFGVNWVRQPPGKGLEWLGVIWGDGSTSYNSGLISRLSISKENSKSQVFLKLNSLQADDTATYYCVKPGGDYWGHGTSVTVSS
VL: QVVLTQSPVIMSASPGEKVTMTCSASSSISYMYWYQQKPGTSPKRWIYDTSKLASGVPARFSGSGSGTSYSLTISNMEAGDAATYYCHQRDSYPWTFGGGTNLEIK
notes: Chimeric antibody with human IgG1 constant regions, made in CHO cells; used plain, biotin- or FITC-labelled, or coupled to beads; also called NEO-101; ensituximab

Source: patent US20190322720A1 (PRECISION BIOLOGICS, published 2019)
